Consider 2 molecules from publication PMC6640709, “Selection and Characterization of a Nanobody Biosensor of GTP-Bound RHO Activities” (Antibodies, 2019).

What is called Kd is the constant that tells how readily two partners part at equilibrium.

For experiment [1], the target named is 2SHA-RHOA N19 dominant negative mutant, deleted for the CAAX motif (UniProt P61586 1-189, T19N). The experiment is described as follows: SPR.
In experiment [2] the target is T1, 2SHA-RHOA wild type, deleted for the CAAX motif (Homo sapiens (Human)., UniProt P61586).
T1 construct: RHOA (Ras homologous family member A), deleted for the carboxy terminal four amino acids (CAAX motif); the two nucleotide states are told apart by the assay; also called RHOA WT; 2S-HA-RHOA wt; source: E. coli BL21(DE3), purified (Strep-Tactin), loaded with GTPγS or GDP; not shown: 2x-Strep-tag, N-terminal, kept; HA, N-terminal, kept
The experiment is described as follows: SPR; RH57-6xHis-Myc-6xHis captured on Ni-NTA chip; 2S-HA-RHOA WT loaded with GTPγS as analyte, 12.5-200 nM, single-cycle kinetics; HBS-P+; 1:1 Langmuir fit. To be noted: both partners purified. Background: SPR reads the build-up and loss of mass on a sensor chip optically.

Experiment [3] addresses T2, 2SHA-RHOA L63 constitutively active mutant, deleted for the CAAX motif (Homo sapiens (Human)., UniProt P61586, Q63L).
T2 construct: RHOA (Ras homologous family member A), deleted for the carboxy terminal four amino acids (CAAX motif); also called RHOA-CA; RHOA Q63L; source: E. coli BL21(DE3), purified (Strep-Tactin); not shown: 2x-Strep-tag, N-terminal, kept; HA, N-terminal, kept
The experiment is described as follows: SPR; RH57-6xHis-Myc-6xHis captured on Ni-NTA chip (250-300 RU); 2S-HA-RHOA L63 or N19 as analyte, 3.125-50 nM, single-cycle kinetics; HBS-P+ (10 mM HEPES pH 7.4, 150 mM NaCl, 0.05% P20); 1:1 Langmuir fit; BIAcore T200. To be noted: both partners purified.

A further experiment has as its target T3, endogenous RHOC (Homo sapiens (Human)., UniProt P08134).
T3 construct: RHOC, endogenous in HeLa cells; also called RHOA/B/C proteins; source: endogenous, HeLa lysate
The experiment is described as follows: co-IP; RH57-6xHis-Myc expressed in HeLa; fresh, non-loaded lysate; intracellular antibody captured on His-tag Ni-NTA resin; endogenous RHO proteins blotted. Particulars: partners not purified.

For another experiment, the target named is T4, endogenous RHOB (Homo sapiens (Human)., UniProt P62745).
T4 construct: RHOB (RAS homologous family member B), endogenous in HeLa cells; also called RHOA/B/C proteins; source: endogenous, HeLa lysate
The experiment is described as above. Particulars: partners not purified.

T3 sequence (P08134 whole entry): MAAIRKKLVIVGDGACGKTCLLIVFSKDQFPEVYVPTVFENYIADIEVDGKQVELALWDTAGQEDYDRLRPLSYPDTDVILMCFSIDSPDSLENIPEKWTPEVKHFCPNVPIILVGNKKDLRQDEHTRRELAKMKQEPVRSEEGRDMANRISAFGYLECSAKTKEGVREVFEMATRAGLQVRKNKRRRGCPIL
T1 sequence (P61586 1-189, stated change not applied): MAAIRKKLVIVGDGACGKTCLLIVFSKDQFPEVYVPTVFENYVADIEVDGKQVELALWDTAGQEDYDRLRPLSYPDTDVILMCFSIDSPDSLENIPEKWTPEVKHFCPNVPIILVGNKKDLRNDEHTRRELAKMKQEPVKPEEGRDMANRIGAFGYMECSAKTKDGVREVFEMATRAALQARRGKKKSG
T4 sequence (P62745 whole entry): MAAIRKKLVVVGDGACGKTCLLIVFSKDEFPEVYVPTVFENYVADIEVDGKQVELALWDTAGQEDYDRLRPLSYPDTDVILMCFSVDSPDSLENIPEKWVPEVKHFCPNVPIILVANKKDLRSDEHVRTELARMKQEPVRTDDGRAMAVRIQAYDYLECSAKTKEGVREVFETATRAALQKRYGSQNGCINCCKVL
Sequence of 2SHA-RHOA N19 dominant negative mutant, deleted for the CAAX motif (P61586 1-189 T19N): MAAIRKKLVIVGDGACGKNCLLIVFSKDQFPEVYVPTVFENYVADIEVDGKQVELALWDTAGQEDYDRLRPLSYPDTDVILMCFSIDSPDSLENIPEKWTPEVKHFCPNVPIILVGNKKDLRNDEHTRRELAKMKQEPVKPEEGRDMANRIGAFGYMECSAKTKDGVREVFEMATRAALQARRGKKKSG
T2 sequence (P61586 1-189 Q63L): as the sequence (P61586 1-189 T19N) above, with N19T, Q63L counted along it

B1: RH57 hs2dAb fused at its carboxy terminal end with 6xHis-Myc-6xHis tag (VHH)
VHH: EVQLQASGGGFVQPGGSLRLSCAASGDTWWSSAMGWFRQAPGKEREFVSAISFYPTEYTYYADSVKGRFTISRDNSKNTVYLQMNSLRAEDTATYYCAWIAWGPWMRTSWYWGQGTQVTVSS
notes: humanized synthetic single domain antibody from the NaLi-H1 phage display library; also called RH57-6xhis-myc-6xhis; RH57 nanobody; source: E. coli XL1BLUE periplasm, purified (His-tag purification beads); not shown: 6xHis, C-terminal, kept; Myc, C-terminal, kept
For the molecule B1, the Kd in experiment [1] is 2410 nM; in experiment [2], 60.5 nM; in experiment [3], 28 nM.

B2: RH57 intracellular antibody with carboxy-terminal 6xHis tag followed by Myc tag (VHH)
VHH: EVQLQASGGGFVQPGGSLRLSCAASGDTWWSSAMGWFRQAPGKEREFVSAISFYPTEYTYYADSVKGRFTISRDNSKNTVYLQMNSLRAEDTATYYCAWIAWGPWMRTSWYWGQGTQVTVSS
notes: as the VHH of m1; also called hs2dAb RH57 with a 6xhis and carboxy Myc tag; source: HeLa, transiently transfected, in lysate; not shown: 6xHis, C-terminal, kept; Myc, C-terminal, kept
As for B2, the binding result in the experiment with endogenous RHOC and in the experiment with endogenous RHOB was “binds” in each case.
